The results in this text go back to patent publication US20260167741A1.

Experiment [1] concerns the target monomeric FcγRIIa-131H (human) (UniProt P12318). The experiment can be described thus: BLI (Octet), steady-state, antibody on FAB2G sensor.
The target in experiment [2] is monomeric FcγRIIa-131R (human) (UniProt P12318). The experiment is described as above.
Experiment [3] addresses monomeric FcγRIIb (human) (UniProt P31994). The experiment is described as above.
For experiment [4], the target named is monomeric FcγRI (human) (UniProt P12314). The experiment can be described thus: BLI (Octet), antibody on FAB2G sensor, monomeric FcγR in solution.
Sequence of monomeric FcγRI (human) (P12314 16-292 limits assumed): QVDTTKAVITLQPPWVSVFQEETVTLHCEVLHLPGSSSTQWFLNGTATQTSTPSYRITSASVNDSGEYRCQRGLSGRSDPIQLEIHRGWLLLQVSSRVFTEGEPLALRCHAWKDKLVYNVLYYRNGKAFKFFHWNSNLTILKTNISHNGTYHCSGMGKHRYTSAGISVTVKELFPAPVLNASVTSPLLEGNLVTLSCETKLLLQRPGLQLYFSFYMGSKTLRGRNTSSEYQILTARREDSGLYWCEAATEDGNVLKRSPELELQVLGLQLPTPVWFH
Experiment [5] has as its target monomeric FcγRIIIa-158F (human) (UniProt P08637). Described as above.
Experiment [6] has as its target monomeric FcγRIIIa-158V (human) (UniProt P08637). Described as above.
Experiment [7] has as its target tetrameric FcγRI-streptavidin-His labelled with Alexa647 (human) (UniProt P12314). The experiment can be described thus: flow cytometry: SKOV-3 (HER2-expressing) cells treated with 100 nM antibody, then tetrameric FcγRI-Alexa647 (50 or 100 nM by paragraph 186, not said on the sheet).

Sequence of monomeric FcγRIIIa-158F (human) (P08637 17-208 limits assumed): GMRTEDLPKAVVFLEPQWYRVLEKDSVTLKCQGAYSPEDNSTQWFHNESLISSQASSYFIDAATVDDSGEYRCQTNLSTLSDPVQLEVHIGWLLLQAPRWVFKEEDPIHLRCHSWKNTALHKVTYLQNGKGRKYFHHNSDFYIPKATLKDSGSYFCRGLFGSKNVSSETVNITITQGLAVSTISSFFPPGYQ
Sequence of monomeric FcγRIIIa-158V (human) (P08637 17-208 F176V limits assumed): as the sequence (P08637 17-208 limits assumed) above, with F160V counted along it
Sequence of monomeric FcγRIIa-131R (human) (P12318 34-217 H167R limits assumed): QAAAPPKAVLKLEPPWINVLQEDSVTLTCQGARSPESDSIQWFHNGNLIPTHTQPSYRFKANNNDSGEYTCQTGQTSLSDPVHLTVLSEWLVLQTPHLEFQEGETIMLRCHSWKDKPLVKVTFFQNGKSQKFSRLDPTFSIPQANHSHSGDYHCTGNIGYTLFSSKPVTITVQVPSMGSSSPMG
Sequence of monomeric FcγRIIa-131H (human) (P12318 34-217 limits assumed): as the sequence (P12318 34-217 H167R limits assumed) above, with R134H counted along it
Sequence of tetrameric FcγRI-streptavidin-His labelled with Alexa647 (human) (P12314 other isoform, or with tags, fused parts or gaps limits assumed): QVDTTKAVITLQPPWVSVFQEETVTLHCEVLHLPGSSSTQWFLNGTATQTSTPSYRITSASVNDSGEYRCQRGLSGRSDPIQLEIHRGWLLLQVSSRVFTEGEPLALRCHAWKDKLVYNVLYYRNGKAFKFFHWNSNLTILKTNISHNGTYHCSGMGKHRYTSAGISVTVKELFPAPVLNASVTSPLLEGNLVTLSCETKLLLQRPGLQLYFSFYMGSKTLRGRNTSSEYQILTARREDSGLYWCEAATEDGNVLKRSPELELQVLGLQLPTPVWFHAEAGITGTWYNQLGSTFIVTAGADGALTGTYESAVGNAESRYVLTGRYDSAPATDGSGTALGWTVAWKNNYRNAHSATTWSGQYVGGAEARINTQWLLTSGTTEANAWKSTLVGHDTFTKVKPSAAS
Sequence of monomeric FcγRIIb (human) (P31994 43-217 limits assumed): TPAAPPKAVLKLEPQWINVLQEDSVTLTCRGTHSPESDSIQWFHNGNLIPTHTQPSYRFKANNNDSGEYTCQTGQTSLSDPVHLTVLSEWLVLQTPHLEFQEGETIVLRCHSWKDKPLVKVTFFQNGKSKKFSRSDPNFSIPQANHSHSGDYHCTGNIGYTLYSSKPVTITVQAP

Trastuzumab-LALA (antibody): the equilibrium dissociation constant (Kd) in experiment [1] was 38 µM; in experiment [2], 22 µM; in experiment [3], 390 µM; in experiment [4], 0.136 µM; in experiment [5], 1.36 µM; in experiment [6], 1.19 µM. For the same substance, the results for the koff in experiment [4], in experiment [5] and in experiment [6] were 0.0203 s⁻¹, 0.033 s⁻¹ and 0.0833 s⁻¹, respectively. Moreover, the kon was found to be 149000 M⁻¹ s⁻¹ in experiment [4], 24300 M⁻¹ s⁻¹ in experiment [5] and 70200 M⁻¹ s⁻¹ in experiment [6]. This substance also came in with an MFI in experiment [7] of 709.
